Source: the RNAGym collection of RNA variant scans (doi:10.1073/pnas.2313332121)

B1: TPR t1 (parent)
chain: GACCAAUCUGCCCUCAGAGCUCGAGAACAUCUUCGGAUGCAGAGGAGGCAGGCUUCGGUGGCGCGAUAGCGCCAACGUCCUCAACCUCCAAUGCAUCCCACCACAUGAUGAUGCCUGAAGAGCCUUGGUUUUUUG

Variants of: B1
Assay: polymerase ribozyme fitness, log enrichment relative to wild type (log ratio); higher = more active; in vitro selection for triplet polymerase activity
Method in brief: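 Libraries of mutants in each subunit of a heterodimeric triplet polymerase ribozyme were generated by PCR and transcribed. In triplicate, each went through one in vitro selection round: annealing with biotinylated primer, partner subunit and triplets; frozen incubation at −7 °C; gel excision of extended constructs; streptavidin-bead capture; RT-PCR. Fitness, taken from Illumina sequencing of input and output libraries, is the logarithm of a genotype's enrichment over wild-type enrichment, averaged across replicates with inverse-variance weights. The logarithm is base 2, and genotypes needed ≥10 input reads and ≥1 read per output to be kept.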

| Variant | polymerase ribozyme fitness (log ratio) |
| --- | --- |
| C22U C56A G69U U78C | -3.41 |
| C20U G35C G57U C80U U129G | -5.92 |
| C22G A103U | -4.6 |
| C20A U92G G110U | -5.28 |
| C22G A41C G44C C79G A90C | -6.07 |
| U21A C56A | -0.423 |
| U21A C56U | -0.334 |
| C22U C34U A83C C124G | -5.96 |
| U21C A50U C70U C99U A111U | -7.45 |
| C22A G36U U55C G120A | -4.54 |
| U21C G69U C89U | -0.984 |
| C22A U116C A121G U129C | -5.72 |
| U21A G36A | -0.614 |
| C22A G61A | -4.54 |
| U21C U59G C101A | -1.38 |
| C20U A43G U112C | -0.81 |
| U21G C70U G93A | -3.75 |
| C22A G51A G71C A111C | -6.96 |
| C22A C72A U106A A118G | -3.71 |
| U21A A43U C72A | -2.36 |
| C22G C73A G93A | -4.3 |

| Variant | polymerase ribozyme fitness (log ratio) |
| --- | --- |
| U21A G39C C49U G63A A75G A121C | -2.73 |
| C20U A43G C62U U78G U87A C89G | -5.31 |
| C20U C72G A91G C101A C114G | -2.36 |
| C22U G45U C49A U106A | -5.79 |
| C20G A50C C80U G93A G120C U125G | -6.66 |
| C20U G63C C94A G120C | -2.23 |
| C22A C40A C73A C123U | -4.93 |
| U21A G57C G120A | -0.312 |
| C20A U32G G44A C73A C114G U132A | -5.73 |
| C22A C101U U106C | -5.01 |
| C20G U106C | -4.11 |
| C20G U33G C34G G44A A46U C98G G110C G113C | -6.24 |
| U21C G77A C88U U106C G110A | -5 |
| C20U C123A | -0.867 |
| U21C G52U G60C | -1.61 |
| C22A U55C | -4.37 |
| C22A U55G | -4.85 |
| U21C G23A G44C G48A A90U C97G C101U C102U C114A | -7.25 |
| C20U G117U | -3.53 |
| C20U C28A G60A A121C | -2.44 |
| U21G G47A A100C U109A U112C A119G | -7.27 |

| Variant | polymerase ribozyme fitness (log ratio) |
| --- | --- |
| C22G G48C C85G U112G | -3 |
| U21G C56U U78G C86U A121G | -0.445 |
| U21A C123G G128C | -1.09 |
| U21A C22A C40U C73U C101A U133G | -5.39 |
| C22U C72G | -4.14 |
| C20U C22G G47A C72U C73U C101G A119G G122U | -6.75 |
| C20U G77U A91G | -5.11 |
| C22G G23A C89U C114U | -4.41 |
| U21G A37G A41U G113U | -2.41 |
| C22G C34U U38A U54C A83C U106G U109A C114G | -6.61 |
| U21G G63C U78A C115U A119U U130A | -5.59 |
| C20A G61U G63A C72U U92C C99G C101A C123U | -6.1 |
| C22G C76U G77C C124U U131G | -3.47 |
| U21C C22U C53G G57U G60A | -5.06 |
| U21G G117A | -2.55 |
| U21A G45A G58A G60U A100U C101G | -2.68 |
| C22A G52A G60A G117U C123U U131C | -6.69 |
| C22A C31G G60U U96A | -6.4 |
| C22U G42U G58A C70U | -5.05 |
| U21A C124G | 0.373 |
| C20G A41U C115U | -4.6 |

| Variant | polymerase ribozyme fitness (log ratio) |
| --- | --- |
| C20G G69A G113A | -5.37 |
| C20G C56A C124U | -4.05 |
| C22G G48A G69C U78A U87C | -5.69 |
| C22U G45A | -4.02 |
| C22U G45U | -4.99 |
| C20G A50C | -6.14 |
| C22U G48C C53G C56A | -4.86 |
| C22A G57U U106A A118G U133C | -3.51 |
| C20G G107A C114U G122A | -6.03 |
| C20G C72A C115A | -4.55 |
| U21A A37U C94U G120A | 0.736 |
| C22G U87A G113U | -6.04 |
| C20U A29G G63A C80U | -4.01 |
| C22G U106G | -3.47 |
| C20A G63U C85G | -5.08 |
| C20U C53G G69C | -2.15 |
| C22A C72G A83G C115A | -5.56 |
| C20G G51A G61A C85G A121U | -7.66 |
| U21C G77C | -0.73 |
| C20U U55G C56A | -1.7 |
| C22A G60C C73U | -5.64 |
